Measured values from patent publication US20250026782A1, “ACTIVATING APPENDAGES TO INDUCE POLYPHARMACOLOGY IN PEPTIDE HORMONE ANALOGUES, INCLUDING DUAL GLP-1R / GIP AGONISM” (Wisconsin Alumni Research Foundation, priority 2023, published 2025).
“Also recorded” adds a separate entry of the source. No end group written: not given here. B4 T2‑OMe = not defined here

Tests used:
GLP-1 receptor = GLP-1 receptor (Homo sapiens, UniProt P43220); assay: cAMP production assay, activation of GLP-1R (GloSensor HEK293 cells); type: cell-based; conditions: result in words, EC50 values only in figures
GIP receptor = biological target: T1, GIP receptor (Homo sapiens, UniProt P48546); assay: cAMP production assay, activation of GIPR (HEK 293 GS cells stably expressing GIPR); conditions: result in words, EC50 values only in figures
T1 sequence (P48546 22-466): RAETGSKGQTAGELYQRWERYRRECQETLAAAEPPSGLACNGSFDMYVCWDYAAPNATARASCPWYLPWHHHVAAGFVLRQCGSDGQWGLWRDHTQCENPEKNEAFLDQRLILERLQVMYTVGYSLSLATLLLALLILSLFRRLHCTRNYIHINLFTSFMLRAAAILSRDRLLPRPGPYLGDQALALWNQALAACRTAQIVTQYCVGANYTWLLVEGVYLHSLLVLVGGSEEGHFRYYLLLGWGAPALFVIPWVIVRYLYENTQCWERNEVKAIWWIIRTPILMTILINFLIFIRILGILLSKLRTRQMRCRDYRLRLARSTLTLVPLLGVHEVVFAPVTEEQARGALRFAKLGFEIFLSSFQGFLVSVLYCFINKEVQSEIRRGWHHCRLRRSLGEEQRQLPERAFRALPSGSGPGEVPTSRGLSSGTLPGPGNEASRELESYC

[1] = degraded by peptidases; cited from earlier work

Sequence of GLP-1 receptor (P43220 24-463): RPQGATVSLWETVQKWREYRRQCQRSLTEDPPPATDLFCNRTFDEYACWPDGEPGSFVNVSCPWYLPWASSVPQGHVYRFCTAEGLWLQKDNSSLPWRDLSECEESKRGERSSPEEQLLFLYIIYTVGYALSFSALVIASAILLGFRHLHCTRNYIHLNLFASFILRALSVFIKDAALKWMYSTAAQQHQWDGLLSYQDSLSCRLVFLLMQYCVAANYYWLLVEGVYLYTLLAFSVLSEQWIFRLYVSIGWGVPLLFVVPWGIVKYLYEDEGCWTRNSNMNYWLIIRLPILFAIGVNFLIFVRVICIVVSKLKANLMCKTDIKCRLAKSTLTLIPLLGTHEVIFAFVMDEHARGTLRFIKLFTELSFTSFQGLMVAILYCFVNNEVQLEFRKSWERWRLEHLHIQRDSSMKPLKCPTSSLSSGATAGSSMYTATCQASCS

activation of the GLP-1 receptor (agonist activity / potency) (GLP-1 receptor) | activation of the GLP-1 receptor (agonist activity / potency) (GLP-1 receptor; listed as TZP) | activation of the GIP receptor (agonist activity / potency) (GIP receptor; listed as TZP) | Substance | activation of the GIP receptor (agonist activity / potency) (GIP receptor) | half-life in vivo [1] | activation of the GIP receptor (agonist activity / potency) (GIP receptor; listed as GLP-1*)
does not activate the GLP-1 receptor |  |  | GIP (1-30): amidated truncated form of glucose-dependent insulinotropic polypeptide, YAEGTFISDY SIAMDKIHQQ DEVNWLLAQK-NH2 |  |  | 
 |  |  | GLP-1 16 B4 T2-OMe: GLP-1 with position 16 B4 T2 side chain, OMe variant of bisphenol (HAEGTFTSDK(B4 T2‑OMe)SSYLEGQAAKEFIAWLVKGRG; reading uncertain) | greater activity than other tested appendages |  | 
 |  |  | GLP-1: glucagon-like peptide-1, native hormone, HAEGTFTSDVSSYLEGQAAKEFIAWLVKGRG | does not activate the GIP receptor; also recorded: no effect on the GIP receptor; also recorded: does not activate the GIPR | < 2 min | acts as an agonist; also recorded: agonists of both GLP-1 receptor and GIP receptor; also recorded: greater activity than other tested appendages
activation of the GLP-1 receptor | dual GLP-1R/GIPR | dual GLP-1R/GIPR | tirzepatide | activation of the GIP receptor |  | 
